According to PMC8210614, “IRDye800CW labeled uPAR-targeting peptide for fluorescence-guided glioblastoma surgery: Preclinical studies in orthotopic xenografts” (Theranostics, 2021):
Non-standard residues stand in square brackets, D forms with d. Primed or numbered codes have the meaning given here. Cha = N[C@@H](CC1CCCCC1)C(=O)O; IRDye800CW′ = not defined here; AEEA = NCCOCCOCC(=O)O

What was measured:
[1] = tested on: uPAR-expressing tumors; details: cited from earlier work; for time of maximal TBR: previous probes
Protocol: Compared to our previous probes, ICG-2Glu-AE105 and CH1055-4Glu-AE105, we improved several features. Importantly, the route of excretion changed from liver to kidneys leading to improved pharmacokinetics with faster excretion. Maximal TBR decreased from 15 h and 96 h of ICG-Glu-Glu-AE105 and CH1055-4Glu-AE105, respectively to 3 h with the current new probe.

[2] = tested on: glioma; details: cited from earlier work
Source text: Gliolan®, the brand name of 5-ALA, was approved for clinical use for GBM resection in Europe in 2007 and by the FDA in 2017. After oral administration, it is metabolized inside the tumor cells into protoporphyrin IX that is fluorescent with an emission peak at 635 nm. […] Further, the frequency of the most common early severe adverse events (hemiparesis, aphasia, convulsions, and epidural hematoma) was 11 of 139 pati ... || GBM as a high-grade glioma is characterized by alterations of the normal brain vasculature resulting in a disrupted leaky BBB [47] manifested on MRI with tumor contrast-enhancement. However, the highly invasive nature of GBM causes single cell invasion into otherwise healthy tissue and proliferation of cells in areas outside of the disrupted BBB region, usually in areas not showing contrast-enhancement on MRI [48]. In contrast, the vasculature and BBB function in low-grade gliomas remains virtually unaltered and intact with normal function. As a consequence, the BBB in both high-grade and ...

[3] = tested on: orthotopic PDX GBM; assay type: in vivo, nude mice; details: IRDye800CW-AE344 6 nmol i.v. 3 h before surgery; 5-ALA 0.25 mg/g oral 4-5 h before; NIR surgery followed 5-ALA surgery; 2 animals each
[4] = tested on: 3D blood-brain barrier (BBB) spheroids; test: Uptake into 3D blood-brain barrier spheroids; assay type: in vitro ADME, human; details: 25 µM, overnight incubation 37 °C/5% CO2, confocal, slice 97 µm inside spheroid, three independent experiments; p = 0.0229
Protocol: All cell lines were incubated at 37 °C/5% CO2.
Blood-brain-barrier spheroid assembly and uptake assays: Blood-brain barrier (BBB) spheroids were assembled as previously described [54]. Briefly, 50 µL of 1% agarose (w/v) in Milli-Q water is added to each well of low-binding 96 well plates (Thermo Fisher Scientific) and allowed to cool prior to the addition of cells. Confluent astrocytes, pericytes and hCMEC/D3 were lifted with 0.025% trypsin and resuspended in BBB-working media (Vasculife-Mv with VEGF omitted and 2% normal human serum). 1x10^3 of each cell type is added sequentially to give a total volume of 100 µL per well. BBB-working media was added to each well to a final volume of 200 µL per well. Astrocytes were used between passage 2 and 4, pericytes between passage 4 and 6, and hCMEC/D3 between passages 29 and 30. […]
The following day, spheroids (10 per treatment condition) were pooled by group into low-binding Eppendorf tubes (1.5 mL, Thermo Fisher Scientific) using 0.1% Triton X-100 treated pipette tips and washed 3 times with sterile PBS. […] The extent of uptake into the spheroids was determined by capturing Z-stacks of each spheroid and measuring the integrated density of a region of interest 50µm from the outer boundary of the spheroid using a slice that corresponds to 97µm inside the spheroid [54]. […]

[5] = Ex vivo plasma stability, murine plasma; assay type: in vitro ADME; details: mouse, 37 °C in dark, 2.4 nmol in 1,600 ul plasma, acetonitrile precipitation, HPLC fluorescence detection ex 774/em 798 nm, normalized to 0 h, read-out: intact probe (normalized AUC on HPLC)
Protocol: (§1) For plasma stability 1,600 ul human and murine plasma were separately incubated with 2.4 nmol IRDye800CW-AE344 in 10 ul PBS at 37 °C in dark. 200 ul samples were collected at 0, 0.5, 1, 2, 3, 6, 12 and 24 h. Plasma proteins were precipitated by addition of 200 ul acetonitrile and the samples were centrifuged at 10,000 G for 10 min. The supernatant was collected for analysis. The supernatant from time zero from both the human and mouse serum was analyzed to establish the retention time of the intact IRDye800CW-AE344 on HPLC-MS on a RSLC Dionex Ultimate 3000 (Thermo) instrument coupled to a Bruker QTOF Impact HD II. The column was an Aeris widepore 3.6 µm C4 column (150 × 4.6 mm, Phenomenex) and the solvent system was solvent A: water containing 0.1% Formic acid; solvent B: acetonitrile containing 0.1% formic acid. Method: 0-1 min 5% solvent B, 1-18min 5%-50% solvent B with a flowrate of 1 mL/min. […] All samples were then run using the settings above and the AUC at the 14 min peak was used to calculate the degradation with 0 h for both murine and human plasma as the reference.

[6] = tested on: liver and kidneys; test: Acute toxicity, liver and kidney histology; assay type: in vivo, nude mice; details: 24 h post injection of 12 nmol, 5 animals
Protocol: Acute toxicity was evaluated on the liver and kidneys from 5 animals 24 h post injection of 12 nmol IRDye800CW-AE344.
Liver and kidney tissue was formalin fixed and paraffin embedded. Sections of 2-4 um thick were cut and a routine staining panel applied including: H&E, modified sirius, PAS and Masson trichome for both and additional PAS with silver for kidneys and PAS with diastase, iron, reticulin artisan and oxidized orcein for the livers. Livers were immunohistochemically stained, immunohistochemical evaluation on 3 µm thick sections was done using the CK7 antibody from Dako/Agilent, GA619 (clone OV-TL12/30) following the manufacturer's instructions. The staining took place on the Omnis from Agilent utilizing the EnVision Flex+ detection kit (GV800). The primary antibody was diluted using Antibody Diluent (Dako DM830) and were incubated for 20 min. The sections were counterstained with hematoxylin.

[7] = Biodistribution by organ fluorescence imaging; assay type: in vivo, nude mice; details: 3 nmol, 1 h post injection
Protocol: Biodistribution was assessed in animals (n=2) receiving 3 nmol IRDye800CW-AE344 and was euthanized after 1 h for organ dissection and imaging (exposure time: 333 ms). Due to renal excretion, the fluorescence signals in the kidneys were out of scale compared to all the other organs.

[8] = Ex vivo plasma stability, human plasma; assay type: in vitro ADME; details: 37 °C in dark, 2.4 nmol in 1,600 ul plasma, acetonitrile precipitation, HPLC fluorescence detection ex 774/em 798 nm, normalized to 0 h, read-out: intact probe (normalized AUC on HPLC)
Protocol: as §1

[9] = not given; remark: listed apart in the source
[10] = not given; remark: listed apart in the source
[11] = not given; remark: listed apart in the source
[12] = biological target: T1, urokinase-type Plasminogen Activator Receptor (uPAR) (UniProt Q03405 23-305); test: SPR; competition in solution, Biacore 3000: pro-uPA S356A immobilised on a CM5 chip (>5000 RU, mass transport limited); 2 nM uPAR incubated with a 3-fold dilution series of peptide (0.076 nM to 1.5 uM), 300 sec, 20 °C, 50 uL/min; 10 mM HEPES, 150 mM NaCl, 3 mM EDTA, 0.05% P20, pH 7.4; details: both partners purified
T1 sequence (Q03405 23-305): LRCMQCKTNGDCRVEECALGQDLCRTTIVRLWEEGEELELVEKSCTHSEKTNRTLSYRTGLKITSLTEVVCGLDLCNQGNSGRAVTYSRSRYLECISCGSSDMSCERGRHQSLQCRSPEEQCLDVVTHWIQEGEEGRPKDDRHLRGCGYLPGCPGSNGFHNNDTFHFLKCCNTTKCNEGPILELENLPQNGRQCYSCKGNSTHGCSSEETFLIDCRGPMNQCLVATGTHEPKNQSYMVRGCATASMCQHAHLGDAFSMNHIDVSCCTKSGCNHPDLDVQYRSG

[13] = biological target: T1, urokinase-type Plasminogen Activator …; test: cell-based or functional assay

Molecule: ICG-Glu-Glu-AE105 [previous fluorescently labeled uPAR probe with ICG]
- TBR of previous probes [1]: 3.5
- time of maximal TBR [1]: 15 h

Molecule: NCC(=O)CCC(=O)O [5-ALA]
- low-grade gliomas showing visible fluorescence [2]: approximately 20%
- frequency of the most common early severe adverse events ([2]; hemiparesis, aphasia, convulsions, epidural hematoma, WL group 4 of 131): 11 of 139
- rate of complete resection of the tumor ([2]; phase III clinical trial, 5-ALA vs WL surgery (36% with WL)): 65%
- postoperative residual tumor on histology after guided surgery [3]: clearly showed residual tumor

Molecule: CC(C)C[C@H](NC(=O)[C@H](Cc1ccc(O)cc1)NC(=O)[C@@H](CCCNC(=N)N)NC(=O)[C@@H](CO)NC(=O)[C@H](Cc1ccccc1)NC(=O)[C@H](CC1CCCCC1)NC(=O)[C@H](CC(=O)O)NC(=O)COCCOCCNC(=O)COCCOCCNC(=O)[C@H](CCC(=O)O)NC(=O)[C@H](CCC(=O)O)NC(=O)CCCCC[N+]1=C(/C=C/C2=C(Oc3ccc(S(=O)(=O)O)cc3)C(=C/C=C3/N(CCCCS(=O)(=O)O)c4ccc(S(=O)(=O)O)cc4C3(C)C)/CCC2)C(C)(C)c2cc(S(=O)(=O)[O-])ccc21)C(=O)N[C@@H](Cc1c[nH]c2ccccc12)C(=O)N[C@@H](CO)C(=O)O [IRDye800CW-AE344]
- fold change in relative fluorescence units (RFU) compared to untreated spheroids [4]: 5.3 fold
- remaining at 6 h, 1.5 µM ([5]; 6 h): 73%
- remaining at 12 h, 1.5 µM ([5]; 12 h): 67%
- kidney histology [6]: normal with preserved glomeruli and tubules without atrophy, inflammation, or fibrosis
- liver histology [6]: normal with lobular configuration without inflammation, fibrosis, cholestasis or deposits
- MFI in liver ([7]; n=2, exposure time 333 ms): 88 a.u.
- MFI in lungs ([7]; n=2, exposure time 333 ms): 101 a.u.
- MFI in normal brain tissue ([7]; n=2, exposure time 333 ms): 19 a.u.
- MFI in skin ([7]; n=2, exposure time 333 ms): 99 a.u.
- MFI in kidneys ([7]; n=2, acquired at 40 ms and extrapolated to 333 ms): 1,236 a.u.
- remaining at 6 h [8]: 61%

Molecule: CH1055-Glu-Glu-Glu-Glu-AE105 [CH1055-4Glu-AE105, previous uPAR probe with NIR-II fluorophore CH1055]
- TBR of previous probes [1]: 2.7
- time of maximal TBR [1]: 96 h

Molecule: CC(C)C[C@H](NC(=O)[C@H](Cc1ccc(O)cc1)NC(=O)[C@@H](CCCNC(=N)N)NC(=O)[C@@H](CO)NC(=O)[C@H](Cc1ccccc1)NC(=O)[C@H](CC1CCCCC1)NC(=O)[C@H](CC(=O)O)NC(=O)COCCOCCNC(=O)COCCOCCNC(=O)[C@H](CCC(=O)O)NC(=O)[C@H](CCC(=O)O)NC(=O)CCCCC[N+]1=C(/C=C/C2=C(Oc3ccc(S(=O)(=O)O)cc3)C(=C/C=C3/N(CCCCS(=O)(=O)[O-])c4ccc(S(=O)(=O)O)cc4C3(C)C)/CCC2)C(C)(C)c2cc(S(=O)(=O)O)ccc21)C(=O)N[C@@H](Cc1c[nH]c2ccccc12)C(=O)N[C@@H](CO)C(=O)O
- absorption maximum λabs,max: 777 nm
- excitation peak λexcit,max [9]: 784 nm
- Stokes shift [10]: 10 nm
- emission peak λemis,max [11]: 794 nm

B1: AE105 (peptide)
chain: DAFSRYLWS
modifications: 9-mer; residue 2 Cha (cyclohexylalanine), residue 4 D-Ser, residue 5 D-Arg; C-terminal free acid. Sequence not printed: taken from the core of the related antagonist peptide AE147 in 1YWH, with D-Arg
- IC50 [12]: 7.8 nM

Molecule: {IRDye800CW′}-EE[AEEA][AEEA]D[Cha]F[dS][dR]YLWS-OH (also: X3-X4: OEG2 linker between Glu-Glu and AE105) [IRDye800CW-AE344]
- IC50 [12]: 20 nM
- normalized tumor-to-background ratio (TBR), NIR imaging of cross sectioned brains with orthotopic GBM in mice, 3 nmol IRDye800CW-AE344 (active), 1 h [13]: 6.6
- normalized tumor-to-background ratio (TBR), NIR imaging of orthotopic GBM in mice, 3 nmol IRDye800CW-AE344 blocked by co-administered AE120 (the dimer version of the AE105), 1 h [13]: 4.6
